# Measurements taken from patent publication US20210030857A1 (NGM BIOPHARMACEUTICALS, published 2021).
# How the values were obtained:
# [1] = biological target: T1, mouse beta klotho expressed on cells (mouse (Mus musculus), UniProt Q99N32 1-1043); assay: FACS on transfected Expi293 cells, antibody 1 µg/ml, labelled anti-human Fc
# T1 construct: also called Mouse KLB
# T1 sequence: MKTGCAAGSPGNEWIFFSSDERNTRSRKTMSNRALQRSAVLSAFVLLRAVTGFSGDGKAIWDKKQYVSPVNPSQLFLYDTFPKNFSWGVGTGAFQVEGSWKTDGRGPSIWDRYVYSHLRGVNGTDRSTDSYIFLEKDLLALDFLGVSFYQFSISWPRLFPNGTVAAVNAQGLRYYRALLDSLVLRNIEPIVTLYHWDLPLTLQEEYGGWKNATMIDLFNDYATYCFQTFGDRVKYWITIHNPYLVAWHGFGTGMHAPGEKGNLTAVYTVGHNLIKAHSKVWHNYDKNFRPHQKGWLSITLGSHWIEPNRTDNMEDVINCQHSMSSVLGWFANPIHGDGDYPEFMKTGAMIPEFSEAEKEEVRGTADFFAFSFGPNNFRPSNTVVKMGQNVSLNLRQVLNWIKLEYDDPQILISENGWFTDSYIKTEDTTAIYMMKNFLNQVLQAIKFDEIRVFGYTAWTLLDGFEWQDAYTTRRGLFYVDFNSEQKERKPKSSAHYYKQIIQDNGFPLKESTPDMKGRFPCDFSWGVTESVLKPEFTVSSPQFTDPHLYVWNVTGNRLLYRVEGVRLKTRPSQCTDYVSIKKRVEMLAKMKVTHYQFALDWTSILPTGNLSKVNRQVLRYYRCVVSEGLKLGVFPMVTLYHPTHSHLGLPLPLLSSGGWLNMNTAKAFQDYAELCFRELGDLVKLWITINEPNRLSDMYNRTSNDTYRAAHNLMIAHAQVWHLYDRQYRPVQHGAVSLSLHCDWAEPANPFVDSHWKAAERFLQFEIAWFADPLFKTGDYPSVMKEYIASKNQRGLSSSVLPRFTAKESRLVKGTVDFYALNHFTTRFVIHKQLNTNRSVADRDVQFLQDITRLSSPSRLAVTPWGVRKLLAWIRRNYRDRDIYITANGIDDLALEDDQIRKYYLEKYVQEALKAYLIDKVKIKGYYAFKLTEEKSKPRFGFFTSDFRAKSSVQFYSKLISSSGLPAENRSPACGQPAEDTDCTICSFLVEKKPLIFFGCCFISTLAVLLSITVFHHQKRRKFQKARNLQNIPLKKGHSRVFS
# Protocol: (§1) Studies were performed in order to localize the binding site on human KLB of anti-beta klotho antibodies in the 5H23 epitope bin, including 5H23 as described in Example 3, with sequences shown in Tables 1-10 and FIGS. 1-3, and human anti-beta klotho antibodies in the 5H23 epitope bin, such as humanized 5H23 antibodies (e.g., VH SEQ ID NO: 271 and VL SEQ ID NO: 276). For example, FACS-based binding assays for domain mapping were performed on Expi293 cells (Life Technologies, A14635) that were transiently transfected with plasmids encoding variants of KLB: human, mouse, cynomolgus, a chimeric version in which the KL1 domain sequence of mouse KLB (M1-F506) replaces the KL1 domain of human KLB (M1-F508) to create mouse-human KLB (SEQ ID NO: 376), and a second chimera in which the human KL1 sequence (M1-F508) replaces the KL1 domain of mouse KLB (M1-F506) to create human-mouse KLB (SEQ ID NO: 374). Additionally, the expression vector pYD7 harboring no KLB sequence was transfected as a negative control.
# (§2) In some studies, binding of a purified sample of a humanized 5H23 antibody (e.g., VH SEQ ID NO: 271 and VL SEQ ID NO: 276) to KLB variants was determined by FACS analysis. […] After washing with PBS/1% BSA/0.1% azide, transfected cells were then co-incubated with labeled anti-human Fc (Jackson lmmunoresearch) for 30 minutes at 4° C. After washing with PBS/1% BSA/0.1% azide, cells were acquired on flow cytometer (FACS Calibur) and analyzed by cytometric software (FlowJo). To display the resulting data, graphs plotting the number of cells as a function of fluorescence intensity were generated, and the median fluorescence intensity (MFI) was determined for each sample as shown in Table 30.
# [2] = biological target: T2, cynomolgus beta klotho expressed on cells (cynomolgus monkey (Macaca fascicularis), UniProt Q86Z14 1-1044 (human entry)); assay: as above
# T2 construct: also called Cynomolgus KLB
# T2 chain: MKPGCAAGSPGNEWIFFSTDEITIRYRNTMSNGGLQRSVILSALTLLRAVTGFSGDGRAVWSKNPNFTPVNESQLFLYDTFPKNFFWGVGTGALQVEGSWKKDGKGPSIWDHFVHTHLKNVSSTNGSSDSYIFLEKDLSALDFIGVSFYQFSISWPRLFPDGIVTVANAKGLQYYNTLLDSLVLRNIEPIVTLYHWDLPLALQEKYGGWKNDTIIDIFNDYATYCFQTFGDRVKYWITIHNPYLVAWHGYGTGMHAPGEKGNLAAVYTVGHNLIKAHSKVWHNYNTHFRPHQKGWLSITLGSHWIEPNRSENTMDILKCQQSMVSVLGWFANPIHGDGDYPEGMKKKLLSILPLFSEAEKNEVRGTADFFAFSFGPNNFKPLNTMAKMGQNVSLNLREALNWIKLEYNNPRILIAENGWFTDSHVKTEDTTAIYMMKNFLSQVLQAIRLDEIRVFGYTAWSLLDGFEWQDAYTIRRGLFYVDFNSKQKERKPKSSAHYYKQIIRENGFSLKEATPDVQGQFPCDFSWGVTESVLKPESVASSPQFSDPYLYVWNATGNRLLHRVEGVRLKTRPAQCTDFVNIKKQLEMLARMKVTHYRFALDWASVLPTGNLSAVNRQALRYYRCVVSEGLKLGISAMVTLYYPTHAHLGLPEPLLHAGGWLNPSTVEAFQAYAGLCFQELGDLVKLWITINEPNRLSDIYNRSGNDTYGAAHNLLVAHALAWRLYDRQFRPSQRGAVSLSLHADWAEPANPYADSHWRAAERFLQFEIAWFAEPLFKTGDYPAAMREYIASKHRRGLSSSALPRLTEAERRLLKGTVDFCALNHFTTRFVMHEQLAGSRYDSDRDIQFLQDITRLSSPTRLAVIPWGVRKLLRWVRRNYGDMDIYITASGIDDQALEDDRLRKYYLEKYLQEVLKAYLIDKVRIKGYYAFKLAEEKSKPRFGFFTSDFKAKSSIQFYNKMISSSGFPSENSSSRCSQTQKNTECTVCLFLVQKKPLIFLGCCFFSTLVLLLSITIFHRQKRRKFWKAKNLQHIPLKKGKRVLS
# Protocol: as §1, §2
binder,measurement,setting,value
"humanized 5H23 antibody (VH SEQ ID NO: 271 and VL SEQ ID NO: 276) (antibody, V domains shown, also called h5H23; h5H23 (Prep 1)) VH: QVQLQQSGAEVKKPGASVKVSCKASGYTFTSYDINWVRQAPGQGLEWIGWIYPGDGSTKYNEKFKGKATITRDTSASTAYMELSSLRSEDTAVYFCARSDYYGSRSFAYWGQGTLVTVSS VL: DIVMTQSPDSLAVSLGERATINCRASKSVSTSGYVYMHWYQQKPGQPPKLLIYLASYLESGVPDRFSGSGSGTDFTLTISSVQAEDVAVYYCQHSRDLTFPFGGGTKLEIK",Mean Fluorescence intensity,[1],14.2 MFI
same,Mean Fluorescence intensity,[2],1910 MFI
"negative control antibody, anti-keyhole limpet hemocyanin (KLH) antibody (antibody, human IgG1, kappa, V domains shown, also called Neg; Control; anti-KLH antibody) VH: not shown VL: DIQMTQSPSSLSASVGDRVTITCRASQGIRNDLGWYQQKPGKAPKRLIYAASSLQSGVPSRFSGSGSGTEFTLTISSLQPEDFATYYCLQHNSYPLTFGGGTKVEIKR",Mean Fluorescence intensity,[1],9.59 MFI
same,Mean Fluorescence intensity,[2],9.26 MFI
